These results are taken from patent publication US20240409935A1, “Atg8ylation coordinates stress granule formation and mTOR inactivation in response to lysosomal damage” (priority 2023, published 2024).

The target of this experiment is T1, GST-tagged NUFIP2 (Homo sapiens (Human)) (UniProt Q7Z417).
T1 sequence: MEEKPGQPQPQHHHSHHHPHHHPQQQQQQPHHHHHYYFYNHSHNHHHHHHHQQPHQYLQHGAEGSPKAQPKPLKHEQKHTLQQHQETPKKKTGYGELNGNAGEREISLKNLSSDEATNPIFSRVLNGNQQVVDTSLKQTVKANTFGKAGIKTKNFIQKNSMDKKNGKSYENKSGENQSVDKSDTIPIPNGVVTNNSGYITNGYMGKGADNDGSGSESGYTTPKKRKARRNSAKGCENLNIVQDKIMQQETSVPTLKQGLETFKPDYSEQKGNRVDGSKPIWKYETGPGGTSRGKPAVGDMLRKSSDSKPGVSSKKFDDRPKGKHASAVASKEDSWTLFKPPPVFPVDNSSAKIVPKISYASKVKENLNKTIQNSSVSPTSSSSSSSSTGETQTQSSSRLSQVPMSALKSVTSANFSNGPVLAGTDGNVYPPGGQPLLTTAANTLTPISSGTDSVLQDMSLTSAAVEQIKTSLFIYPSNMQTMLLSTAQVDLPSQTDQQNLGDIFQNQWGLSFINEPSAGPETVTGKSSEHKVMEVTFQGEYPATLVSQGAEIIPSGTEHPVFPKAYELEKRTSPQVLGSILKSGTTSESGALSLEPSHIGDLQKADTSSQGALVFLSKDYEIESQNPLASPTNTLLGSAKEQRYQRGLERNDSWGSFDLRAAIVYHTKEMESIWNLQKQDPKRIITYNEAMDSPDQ
Put plainly: GST pulldown of in vitro translated radiolabeled Myc-G3BP1 with GST-NUFIP2.

Sequence of Myc-tagged G3BP1 (in vitro translated and radiolabeled) (Q13283 whole entry): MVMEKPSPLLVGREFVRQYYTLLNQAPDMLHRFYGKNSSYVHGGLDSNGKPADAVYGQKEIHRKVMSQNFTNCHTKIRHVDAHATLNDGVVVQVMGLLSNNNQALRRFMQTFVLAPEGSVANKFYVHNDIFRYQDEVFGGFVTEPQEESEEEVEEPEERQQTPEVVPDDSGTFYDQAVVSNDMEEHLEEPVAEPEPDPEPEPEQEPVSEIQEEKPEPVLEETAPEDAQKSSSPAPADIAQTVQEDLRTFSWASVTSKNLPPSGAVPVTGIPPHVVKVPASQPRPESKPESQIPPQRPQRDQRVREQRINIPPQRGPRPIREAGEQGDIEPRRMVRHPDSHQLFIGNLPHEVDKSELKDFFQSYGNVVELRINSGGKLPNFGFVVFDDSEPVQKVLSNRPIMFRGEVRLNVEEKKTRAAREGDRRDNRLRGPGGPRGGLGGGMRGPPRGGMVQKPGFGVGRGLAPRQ

Consider “Myc-tagged G3BP1 (in vitro translated and radiolabeled) (from UniProt Q13283 1-466)”, for which the % binding (percent of the input bound) turned out to be 60%.
